Among the data in patent publication US20050170504 are Kd values, retold here.

The target in the data set is TmHU (HU protein) (Thermotoga maritima) (UniProt P36206). Nature of the data set: SPR. To be noted: transition midpoint of Hill curve, 50 mM sodium phosphate pH 7.5, 100 mM NaCl.
UniProt P36206, sequence (P36206 other isoform, or with tags, fused parts or gaps): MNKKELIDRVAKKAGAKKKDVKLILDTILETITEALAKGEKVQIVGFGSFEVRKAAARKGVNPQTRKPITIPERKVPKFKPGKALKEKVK

Usually Kd stands for the concentration at which binding is half-saturated. As for 23 bp dsDNA fragment, the Kd (Hill coefficient 1.3) came out at 73 nM.
With 56 bp dsDNA fragment, the Kd (Hill coefficient 7.6) came to 73 nM.
